Reference: the Immune Epitope Database (IEDB)

Tests used:
Assay in all cases: IEDB peptide-MHC binding, purified MHC/competitive/radioactivity; ≥ and ≤ were set here for values at or beyond the usual limits of such assays
HLA-A*68:02 = target: HLA-A*68:02
HLA-A*02:06 = target: HLA-A*02:06
HLA-A*02:01 = target: HLA-A*02:01
HLA-A*02:03 = target: HLA-A*02:03
HLA-A*02:02 = target: HLA-A*02:02
[1] = source organism: Vaccinia virus WR
[2] = source organism: Hepacivirus hominis
[3] = source organism: Mammarenavirus whitewaterense

Sequence	IC50 (HLA-A*68:02; [1]) [nM]	IC50 (HLA-A*02:06; [1]) [nM]	IC50 (HLA-A*02:01; [1]) [nM]	IC50 (HLA-A*02:03; [1]) [nM]	IC50 (HLA-A*02:02; [1]) [nM]	also measured
DTCLLAISAV	118	106	46	93	2460	
TLVKSGLTEV	2320	45	9.2	2.9	64	
ILISLINSLV	141	151	83	3.1	23	
MMNITRLEVI	428	134	144	26	85	
FAISYCRAFI	1.7	35	1970	38	105	
TIDNIVTSL	1860	2730	2670	1040	178	
DINESMSQMV	2070	4150	158	488	312	
YMLFTKFFYL						IC50 (HLA-A*68:02; source organism: SARS-CoV1): 9.9 nM; IC50 (HLA-A*02:06; source organism: SARS-CoV1): 20 nM; IC50 (HLA-A*02:01; source organism: SARS-CoV1): 5.1 nM; IC50 (HLA-A*02:03; source organism: SARS-CoV1): 46 nM; IC50 (HLA-A*02:02; source organism: SARS-CoV1): 48 nM
IVTFINDYA	84	1150	4320	2960	140	
YIPPCQCTV	228	92	107	445	196	
WLVIGVAFL						IC50 (HLA-A*68:02; source organism: SARS-CoV1): 127 nM; IC50 (HLA-A*02:06; source organism: SARS-CoV1): 180 nM; IC50 (HLA-A*02:01; source organism: SARS-CoV1): 35 nM; IC50 (HLA-A*02:03; source organism: SARS-CoV1): 0.94 nM; IC50 (HLA-A*02:02; source organism: SARS-CoV1): 2.6 nM
YIWKSYVHI						IC50 (HLA-A*68:02; source organism: SARS-CoV1): 104 nM; IC50 (HLA-A*02:06; source organism: SARS-CoV1): 8.9 nM; IC50 (HLA-A*02:01; source organism: SARS-CoV1): 24 nM; IC50 (HLA-A*02:03; source organism: SARS-CoV1): 13 nM; IC50 (HLA-A*02:02; source organism: SARS-CoV1): 86 nM
NIISYIILFI	25	72	156	133	123	
TLLGLILFVL	720	672	35	796	169	
WVMDTLNGIM	101	129	175	194	1330	
MLLAYLVRI						IC50 (HLA-A*68:02; [2]): 1830 nM; IC50 (HLA-A*02:06; [2]): 5 nM; IC50 (HLA-A*02:01; [2]): 3.3 nM; IC50 (HLA-A*02:03; [2]): 12 nM; IC50 (HLA-A*02:02; [2]): 6.6 nM
AIFNNRNLA	372	7.1	3180	98	272	
LIVAALVFL						IC50 (HLA-A*68:02; source organism: SARS-CoV1): 302 nM; IC50 (HLA-A*02:06; source organism: SARS-CoV1): 11 nM; IC50 (HLA-A*02:01; source organism: SARS-CoV1): 18 nM; IC50 (HLA-A*02:03; source organism: SARS-CoV1): 136 nM; IC50 (HLA-A*02:02; source organism: SARS-CoV1): 9.4 nM

Sequence	IC50 (HLA-A*68:02; [1]) [nM]	IC50 (HLA-A*02:06; [1]) [nM]	IC50 (HLA-A*02:01; [1]) [nM]	IC50 (HLA-A*02:03; [1]) [nM]	IC50 (HLA-A*02:02; [1]) [nM]	also measured
TVGMSIVCIV	220	200	526	468	528	
CVMYASALV						IC50 (HLA-A*68:02; source organism: SARS-CoV1): 0.89 nM; IC50 (HLA-A*02:06; source organism: SARS-CoV1): 7.4 nM; IC50 (HLA-A*02:01; source organism: SARS-CoV1): 9.3 nM; IC50 (HLA-A*02:03; source organism: SARS-CoV1): 2.9 nM; IC50 (HLA-A*02:02; source organism: SARS-CoV1): 4.5 nM
WVMDTLNGI	0.44	0.73	12	1	9.8	
YAAEMVEYL	13	12	32	2.1	0.52	
MLLTFLTSL						IC50 (HLA-A*68:02; source organism: SARS-CoV1): 923 nM; IC50 (HLA-A*02:06; source organism: SARS-CoV1): 3.6 nM; IC50 (HLA-A*02:01; source organism: SARS-CoV1): 1.6 nM; IC50 (HLA-A*02:03; source organism: SARS-CoV1): 4.8 nM; IC50 (HLA-A*02:02; source organism: SARS-CoV1): 6.2 nM
TQWSLFFFV						IC50 (HLA-A*68:02; source organism: SARS-CoV1): 104 nM; IC50 (HLA-A*02:06; source organism: SARS-CoV1): 0.81 nM; IC50 (HLA-A*02:01; source organism: SARS-CoV1): 0.77 nM; IC50 (HLA-A*02:03; source organism: SARS-CoV1): 540 nM; IC50 (HLA-A*02:02; source organism: SARS-CoV1): 80 nM
TILDDNLYKV	1420	49	239	1630	1080	
KQYDSTDFKM	3540	107	309	3280	8.4	
NLLLLFVTI						IC50 (HLA-A*68:02; source organism: SARS-CoV1): 755 nM; IC50 (HLA-A*02:06; source organism: SARS-CoV1): 456 nM; IC50 (HLA-A*02:01; source organism: SARS-CoV1): 201 nM; IC50 (HLA-A*02:03; source organism: SARS-CoV1): 1600 nM; IC50 (HLA-A*02:02; source organism: SARS-CoV1): 436 nM
DVERLQMAGV	363	776	683	104	215	
ALAEHISDSI	272	163	8.7	0.34	0.2	
LLMCAVHPEL						IC50 (HLA-A*68:02; [2]): 1350 nM; IC50 (HLA-A*02:06; [2]): 442 nM; IC50 (HLA-A*02:01; [2]): 54 nM; IC50 (HLA-A*02:03; [2]): 177 nM; IC50 (HLA-A*02:02; [2]): 25 nM
NITRLEVIGL	301	197	424	95	907	
FVDEFYAYL						IC50 (HLA-A*68:02; source organism: SARS-CoV1): 38 nM; IC50 (HLA-A*02:06; source organism: SARS-CoV1): 0.36 nM; IC50 (HLA-A*02:01; source organism: SARS-CoV1): 0.22 nM; IC50 (HLA-A*02:03; source organism: SARS-CoV1): 2.6 nM; IC50 (HLA-A*02:02; source organism: SARS-CoV1): 0.089 nM
FLAFLLFLV						IC50 (HLA-A*68:02; source organism: SARS-CoV1): 66 nM; IC50 (HLA-A*02:06; source organism: SARS-CoV1): 9 nM; IC50 (HLA-A*02:01; source organism: SARS-CoV1): 8.3 nM; IC50 (HLA-A*02:03; source organism: SARS-CoV1): 58 nM; IC50 (HLA-A*02:02; source organism: SARS-CoV1): 1.8 nM
RVTTELNIV	481	46	818	116	2460	
LNASYITPYV						IC50 (HLA-A*68:02; [3]): 13 nM; IC50 (HLA-A*02:06; [3]): 38 nM; IC50 (HLA-A*02:01; [3]): 87 nM; IC50 (HLA-A*02:03; [3]): 1070 nM; IC50 (HLA-A*02:02; [3]): 33 nM
